Biological target: T1, RAIDD (construct or tag not stated for the experiment) (human, UniProt P78560 1-199)
T1 construct: a tag may have been present; also called RAIDD expression construct
Assay: in vitro binding to GST fusion protein on glutathione beads
Procedure: In Vitro Binding Assay. […] The tagged proteins were expressed, purified, and immobilized into Ni²⁺ beads according to standard methodology. The GST-Fas and TNFR-1 fusion proteins were prepared as described previously (Chinnaiyan, A. M. et al., Cell 81:505-12 (1995)). ³⁵S-labeled proteins were obtained by in vitro transcription/translation using the TNT T7-coupled reticulocyte lysate system (Promega).
Beads were washed, boiled in SDS sample buffer, eluted proteins resolved by SDS-PAGE and visualized following autoradiography.

T1 sequence (P78560 whole entry): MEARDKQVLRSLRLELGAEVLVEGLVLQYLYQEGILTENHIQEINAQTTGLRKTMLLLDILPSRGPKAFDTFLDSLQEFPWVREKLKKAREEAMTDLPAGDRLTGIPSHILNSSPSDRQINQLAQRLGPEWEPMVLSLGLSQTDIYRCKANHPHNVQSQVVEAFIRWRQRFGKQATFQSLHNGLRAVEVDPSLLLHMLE

- binding result: no binding
B1: GST-Fas fusion protein (receptor, UniProt P25445 191-335, looked up)
chain: KRKEVQKTCRKHRKENQGSHESPTLNPETVAINLSDVDLSKYITTIAGVMTLSQVKGFVRKNGVNEAKIDEIKNDNVQDTAEQKVQLLRNWHQLHGKKEAYDTLIKDLKKANLCTLAEKIQTIILKDITSDSENSNFRNEIQSLV
notes: not shown: GST
